Experiment [1] concerns the target p27-KID (Homo sapiens, UniProt P46527). The experiment can be described thus: 2D 1H-15N HSQC NMR screening and titration of compounds into 15N-p27-KID. Conditions: read-out: Kd (from CSP); single-site binding model fitted to chemical shift perturbation; 298 K, pH 6.5.
Protocol: Two-dimensional (2D)^1H-^15N HSQC NMR experiments were performed using a SampleJet sample changer. […] Chemical shift perturbation values were quantified using the equation Δδ=√{square root over (ΔδH^2+(0.2ΔδN)^2)}. The statistical significance was based on a threshold defined as the average CSP value plus two times the standard deviation of the mean (Δδave+2σ).
Experiment [2] deals with T1, Cdk2/cyclin A (Homo sapiens, UniProt P24941).
T1 construct: Full length human Cdk2; made in house
Nature of the experiment: Isothermal titration calorimetry of p27 variants into Cdk2/cyclin A. The conditions noted are these: ITC at 25° C., binding to Cdk2/cyclin A. On the procedure:
(§1) ITC experiments were performed using a MicroCal ITC200 calorimeter with p27 variants in the syringe and Cdk2/cyclin A and Cdk2, respectively, in the cell. Prior to each set of experiments, protein samples were extensively dialyzed together against ITC buffer containing 20 mM HEPES, pH 7.5, 300 mM NaCl, 5 mM TCEP. A standard titration consisted of 19 injections of 2-μl of p27 variant (100 μM) into a solution of Cdk2/cyclin A (10 μM) or Cdk2 (10 μM), respectively. The time interval between injections was 180 s. Experiments were performed at 25° C. Thermodynamic parameters were obtained by fitting the raw data using Origin software (OriginLab) according to the manufacturers instructions using a 1:1 binding model to obtain values of the enthalpy of binding (ΔH), Gibbs free energy of binding (ΔG), entropy of binding (ΔS), and stoichiometry factor (N). Experiments were performed in triplicate and mean and standard deviations of the mean values of these parameters are reported.

Experiment [3] addresses T2, Cdk2 (Homo sapiens, UniProt P24941).
T2 construct: Full length human Cdk2; made in house
Nature of the experiment: Isothermal titration calorimetry of p27 variants into Cdk2. The conditions noted are these: ITC at 25° C., binding to Cdk2. The method, then: as §1
Background: In ITC the heat of successive injections is recorded.

In experiment [4] the target is T1, Cdk2/cyclin A. The experiment can be described thus: Cdk2/cyclin A kinase activity assay (32P incorporation into Histone H1). The conditions noted are these: Histone H1 as substrate; read-out: Half maximal Cdk2/cyclin A inhibitory concentration (IC50). In kind it is biochemical. The method, then:
Cdk2/Cyclin A ([…]) was mixed with Histone H1 (50 μM; EMD Millipore) and varied amounts of p27 constructs and incubated for 3 hours at 4° C. […] IC50 values were determined by curve fitting using GraphPad Prizm 7 software. Experiments were performed in triplicate and mean IC50 and standard deviations of the mean values are reported.

p27-KID, sequence (P46527 22-105): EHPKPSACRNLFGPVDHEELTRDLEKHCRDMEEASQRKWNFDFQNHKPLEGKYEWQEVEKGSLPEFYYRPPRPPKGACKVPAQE

In general, Kd refers to the constant that tells how readily two partners part at equilibrium. `O=c1oc2cc(OCCO)ccc2c2c1CCCC2` [SJ710]: the dissociation constant Kd in experiment [1] was 4800 ± 1300 µM.
For the molecule “p27-D2: D2 sub-domain of p27, residues 58-105 of human p27 (RKWNFDFQNHKPLEGKYEWQEVEKGSLPEFYYRPPRPPKGACKVPAQE; UniProt P46527 58-105, looked up, fragment)”, in experiment [2], the affinity, expressed as Kd, was 0.134 ± 0.0235 µM; the ΔG was -9.4 ± 0.1 kcal/mol; the ΔH is -24.7 ± 1.8 kcal/mol; the −TΔS amounted to 15.3 ± 1.9 kcal/mol. In experiment [3], this molecule gave a dissociation constant Kd of 0.231 ± 0.0674 µM, a ΔG of -9.1 ± 0.2 kcal/mol, a ΔH of -24.5 ± 0.7 kcal/mol and a −TΔS of 15.4 ± 0.9 kcal/mol. Moreover, the IC50 in experiment [4] was 0.067 ± 0.022 µM.

These data come from patent US20220177457A1, “SMALL MOLECULES THAT BIND CYCLIN-DEPENDENT KINASE INHIBITOR 1B (P27KIP1)” (St. Jude Children's Hospital, Inc., priority 2019, published 2022).
